These results are taken from patent publication US20250082608A1, “TREATMENT AND PREVENTION OF GLOMERULAR DISEASE” (Singapore Health Services PTE LTD., priority 2021, published 2025).

“Also recorded” adds a separate entry of the source.

Test [1] relates to rheumatoid synovial cells. Conditions: upon treatment; cited from earlier work.
Test [2] relates to Col4a3−/− mice. Conditions: cited from earlier work.
Test [3] has as its system Col4a3−/− mice. In words: Lifespan study in Col4a3−/− mice, anti-IL11 and ramipril alone or in combination, Example 3. In kind it is in vivo, mouse. Conditions: X203 20 mg/kg twice a week, ramipril 10 mg/kg 6 days/week, from 6 weeks of age; for mean percentage lifespan extension: over lifespan of untreated Col4a3−/− mice. On the procedure:
Col4a3^−/− (Col4a3^tm1Dec) mice were housed as described in Example 2.2. For lifespan studies, the mice were intraperitoneally administered either anti-IL11 (X203; twice a week, 20 mg/kg) or IgG isotype control (11 E10; twice a week, 20 mg/kg) alone or in combination with ramipril (10 mg/kg; 6 days/week) starting from 6 weeks of age, until death ensued.

The target in a further test is T1, IL-11Rα (Homo sapiens, UniProt Q14626).
T1 sequence (Q14626 23-422): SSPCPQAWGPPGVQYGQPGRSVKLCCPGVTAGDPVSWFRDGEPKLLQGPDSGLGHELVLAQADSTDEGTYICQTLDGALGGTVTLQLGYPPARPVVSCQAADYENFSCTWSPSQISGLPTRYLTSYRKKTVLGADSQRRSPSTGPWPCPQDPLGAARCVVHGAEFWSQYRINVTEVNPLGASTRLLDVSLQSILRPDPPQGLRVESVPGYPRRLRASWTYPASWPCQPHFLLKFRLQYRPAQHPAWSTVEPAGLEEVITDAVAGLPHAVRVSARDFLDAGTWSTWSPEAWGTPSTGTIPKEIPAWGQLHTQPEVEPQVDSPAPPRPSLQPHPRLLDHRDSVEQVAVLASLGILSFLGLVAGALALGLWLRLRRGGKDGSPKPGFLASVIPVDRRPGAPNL
The conditions noted are these: low affinity; cited from earlier work.

For test [4], the system named is Col4a3−/− mice. In words: Treatment study in Col4a3−/− mice: renal fibrosis (total renal collagen content, Masson's Trichrome staining). In kind it is in vivo, mouse. The conditions noted are these: 20 mg/kg 2x/week for 2.5 weeks from 6 weeks of age; vs IgG. On the procedure:
(§1) Col4a3^−/− (Col4a3^tm1Dec) mice were purchased from The Jackson Laboratory (https://www.jax.org/strain/002908). Mice were housed in temperatures of 21-24° C. with 40-70% humidity on a 12 h light/12 h dark cycle and provided with food and water ad libitum. For treatment study, Col4a3^−/− were administered 20 mg/kg of anti-IL11 (X203) or IgG isotype control (11 E10) by intraperitoneal (IP) injection starting from 6 weeks of age twice a week for 2.5 weeks; wild-type littermates were used as controls. Mice were sacrificed for blood and kidney collection when they were 8.5-week-old. For lifespan study, IgG/X203 was administered to 6-week-old Col4a3^−/− (2×/week) until death ensued.
Kidney tissues were fixed for 48 hours at RT in 10% neutral-buffered formalin (NBF), dehydrated, embedded in paraffin, and sectioned at 7 μm. Transverse kidney sections were then stained with Masson's Trichrome according to standard protocol. Images of the sections were captured by light microscopy and blue-stained fibrotic areas were semi-quantitatively determined with Image-J software (color deconvolution-Masson Trichrome) from the whole kidney area (100×field, n=4 kidneys/group). Treatment and genotypes were not disclosed to investigators performing the histology and generating semi-quantitative readouts.

The subject of test [5] is Col4a3−/− mice. In words: Treatment study in Col4a3−/− mice: renal function (BUN, serum creatinine, urinary albumin:creatinine) by colorimetric assays/ELISA. Conditions: study end, 8.5 weeks of age; X203 from week 6. In kind it is in vivo, mouse. On the procedure:
as §1
The levels of blood urea nitrogen (BUN) and creatinine in mouse serum were measured using Urea Assay Kit (ab83362, Abcam) and Creatinine Assay Kit (ab65340, Abcam), respectively. Urine albumin and creatinine levels were measured using Mouse Albumin ELISA kit (ab108792, Abcam) and Creatinine Assay Kit (ab204537, Abcam), respectively. All ELISA and colorimetric assays were performed according to the manufacturer's protocol.
(An ELISA detects its analyte on a solid surface through an enzyme-linked reagent.)

Test [6] has as its system Col4a3−/− mice. In words: Treatment study in Col4a3−/− mice: body weight and kidney weight. In kind it is in vivo, mouse. On the procedure: as §1
Over recent years, antibodies that inhibit IL11 signaling in mouse and human cells have been developed^15,17. One of these neutralizing IL11 antibodies (X203) or an IgG control were administered to 6-week-old Col4a3^−/− mice, the time point when initiation of ramipril has proven ineffective^6, and examined renal pathologies at 8.5 weeks of age, as compared to age-matched wild-type controls (FIG. 3A).

In test [7] the test system is Col4a3−/− mice. In words: Treatment study in Col4a3−/− mice: Wilms' Tumor 1 immunohistochemistry (podocytes). Conditions: blinded quantification; vs IgG, P=0.0002. In kind it is in vivo, mouse. On the procedure:
as §1
Kidneys were fixed in 10% neutral-buffered formalin (NBF), paraffinized, cut into 7 μm sections, incubated with primary antibodies overnight and visualized using an ImmPRESS HRP anti-rabbit IgG polymer detection kit (MP-7401, Vector Laboratories) with ImmPACT DAB Peroxidase Substrate (SK-4105, Vector Laboratories). Quantification of WT^+ve cells were performed in a blinded fashion from 4 images (200×field)/kidney (n=3-4 kidneys/group).

Test [8] has as its system Col4a3−/− mice. Briefly: Treatment study in Col4a3−/− mice: renal mRNA expression by qPCR. In kind it is in vivo, mouse. On the procedure:
as §1
Total RNA was extracted from snap-frozen kidney tissues using Trizol (Invitrogen) followed by RNeasy column (Qiagen) purification. cDNAs were synthesized with iScript™ cDNA synthesis kit (Bio-Rad) according to manufacturer's instructions. Gene expression analysis was performed on duplicate samples with either TaqMan (Applied Biosystems) or fast SYBR green (Qiagen) technology using StepOnePlus™ (Applied Biosystem) over 40 cycles. Expression data were normalized to GAPDH mRNA expression and fold change was calculated using […]. The sequences of specific TaqMan probes and SYBR green primers are available upon request.
(Real-time PCR tracks product formation cycle by cycle.)

Test [9] deals with Col4a3−/− mice. In words: Lifespan study in Col4a3−/− mice, Example 2. In kind it is in vivo, mouse. On the procedure:
as §1
Statistical analyses were performed using GraphPad Prism software (version 8). Statistical significance between control and experimental groups were analysed by twosided Student's t tests or by one-way ANOVA as indicated in the figure legends. P values were corrected for multiple testing according to Tukey when several conditions were compared to each other within one experiment. Comparison analysis for two parameters from two different groups were performed by two-way ANOVA. Survival curves were analyzed by Gehan-Breslow-Wilcoxon test. The criterion for statistical significance was P<0.05.

Test [10] concerns Col4a3−/− mice. Briefly: Treatment study in Col4a3−/− mice: Western blot of kidney protein extracts. The class given is in vivo, mouse. The conditions noted are these: vs IgG. On the procedure:
as §1
Western blot was carried out on total protein extracts from mouse kidney tissues. Kidneys were lysed in radioimmunoprecipitation assay (RIPA) buffer containing protease and phosphatase inhibitors (Thermo Scientifics), followed by centrifugation to clear the lysate. Protein concentrations were determined by Bradford assay (Bio-Rad). Protein lysates were separated by SDS-PAGE, transferred to PVDF membrane, and subjected to immunoblot analysis for various antibodies as outlined in the main text, figures, or and/or figure legends. Proteins were visualized using the ECL detection system (Pierce) with the appropriate secondary antibodies: anti-rabbit HRP or antimouse HRP.
A general note: Immunoblotting shows a protein as a band on a membrane.

In the next test the test system is 129-Col4a3^tm1Dec/J mice. In words: Survival of mice homozygous for Col4a3^tm1Dec (mouse model of Alport syndrome), Example 1. The conditions noted are these: 20 mg/kg i.p. biweekly from 6 weeks of age until mortality. In kind it is in vivo. An excerpt: 129-Col4a3^tm1Dec/J mice were obtained from The Jackson Laboratory (Stock No:002908; COL4A3 KO). The mice comprise the Col4a3^tm1Dec mutation described e.g. in Cosgrove et al., Genes Dev. (1996) 10:2981-2992, which is hereby incorporated by reference in its entirety. 129-Col4a3^tm1Dec/J mice comprise a targeted mutation to Col4a3, resulting in progressive glomerulonephritis with microhematuria and proteinuria, and mice homozygous for the mutation typically die at about 8.5 weeks.
From 6 weeks of age, mice homozygous for the Col4a3^tm1Dec mutation were administered biweekly by intraperitoneal injection of 20 mg/kg of Enx203, or an isotype-matched control antibody, until mortality.

Take `COc1ccc2c(c1)c(CC(=O)O)c(C)n2C(=O)c1ccc(Cl)cc1` [indomethacin, reference compound]: the “expression of IL-11” value in test [1] was “reduction in the expression of IL-11”.

For the molecule “interferon-gamma (IFNγ): interferon-gamma”, in test [1], the “expression of IL-11” value was “reduction in the expression of IL-11”.

With `CCOC(=O)[C@H](CCc1ccccc1)N[C@@H](C)C(=O)N1[C@H](C(=O)O)C[C@@H]2CCC[C@@H]21` [ramipril], the “beneficial effect of delayed treatment” value in the test on Col4a3−/− mice [2] (treatment delayed until after proteinuria was established (6-week-old mice)) is on record as “no beneficial effect; also recorded: ineffective”. The “kidney dysfunction and lifespan” value in the test on Col4a3−/− mice [2] (treatment of 4-week-old mice, prior to onset of proteinuria and tubulointerstitial fibrosis) was “attenuated kidney dysfunction and prolonged lifespan”. Besides, in the test with Col4a3−/− mice [3], the “improvement of median survival over untreated mice” value is 14 days and the “mean percentage lifespan extension” value stood at 25.40%.

B1: IL-11: pleiotropic cytokine, member of the IL-6 family; human sequence SEQ ID NO:1 (protein)
chain: PGPPAGSPRVSSDPRADLDSAVLLTRSLLADTRQLAAQMRDKFPADGDHSLDSLPTLAMSAGTLGSLQLPGVLTRLRVDLMSYLRHVQWLRRAGGPSLKTLEPELGALQARLERLLRRLQLLMSRLALPQAAPDQPVIPLGPPASAWGSIRAAHAILGGLHLTLDWAVRGLLLLKTRL
For orientation: Kd means the concentration at which binding is half-saturated. Regarding B1, the Kd with IL-11Rα was approximately 22 nM.

B2: Enx203: mouse anti-mouse IL-11 IgG, neutralizing; VH SEQ ID NO:22, VL SEQ ID NO:23 (antibody, V domains shown)
VH: EVQLQQSGPELVKPGASVKIPCKASGYTFTDYNMDWVKQSHGKSLEWIGDINPHNGGPIYNQKFTGKATLTVDKSSSTAYMELRSLTSEDTAVYYCARGELGHWYFDVWGTGTTVTVSS
VL: DIVLTQSPASLAVSLGQRATISCRASKSVSTSGYSYIHWYQQKPGQPPKLLIYLASNLDSGVPARFSGSGSGTDFTLNIHPVEEEDAATYYCQHSRDLPPTFGGGTKLEIK
B2: in the test on Col4a3−/− mice [3], the “improvement of median survival over untreated mice” value is 28 days and the “mean percentage lifespan extension” value amounted to 41.93%. The “kidney fibrosis by biochemical and histological assessments” value with Col4a3−/− mice [4] was “reduced severity of renal fibrosis; also recorded: significantly less kidney fibrosis”. In the test on Col4a3−/− mice [5], the “serum blood urea nitrogen (BUN)” value is on record as “improved renal function; also recorded: markedly lowered”, the “serum creatinine (Cr)” value was “improved renal function; also recorded: markedly lowered” and the “urinary albumin:creatinine ratio (ACR)” value is recorded as “reduced albuminuria; also recorded: markedly lowered”. For the same molecule, the “kidney mass (kidney weight)” value with Col4a3−/− mice [6] (20 mg/kg 2x/week for 2.5 weeks from 6 weeks of age, vs IgG) is reported as “preserved kidney mass”. Also, the “total body weight loss as a percentage of starting body weight” value in the test on Col4a3−/− mice [6] (20 mg/kg i.p. 2x/week for 2.5 weeks from 6 weeks of age, end of study, IgG control 30%, P=0.0003) is 17%. Also, the “number of WT1-positive cells (podocytes)” value in the test with Col4a3−/− mice [7] is recorded as “restored towards normal; also recorded: restoration of podocytes”. The “renal levels of extracellular matrix genes (Col1a1, Col1a2, Col3a1, Fn), Acta2 and pro-fibrotic factors (Il11, Tgfb1)” value in the test on Col4a3−/− mice [8] (mRNA, 20 mg/kg 2x/week for 2.5 weeks from 6 weeks of age, vs IgG) was “all reduced”. Moreover, the “indicators of tubule damage (Kim1 and Ngal)” value in the test on Col4a3−/− mice [8] (renal mRNA) is on record as “restored by X203 administration towards the levels seen in wildtype mice”. Moreover, in the test on Col4a3−/− mice [8] (renal mRNA, vs IgG), the Tnfα expression result is “reduced Tnfα expression”; the “proinflammatory interleukins (Il6, Il1b) and CC chemokines (Ccl2, Ccl5)” value is recorded as “equally diminished”. In the test with Col4a3−/− mice [9] (20 mg/kg 2x/week from 6 weeks of age until death, IgG control 62.5 days, P=0.0015), this molecule gave a median lifespan of 88.5 days. In addition, in the test with Col4a3−/− mice [9] (from 62.5 to 88.5 days, vs IgG), the “extension of median life span” value turned out to be 41.6%. Also, the “ERK and STAT3 phosphorylation in kidneys” value with Col4a3−/− mice [10] (20 mg/kg 2x/week for 2.5 weeks from 6 weeks of age) was “largely reduced; also recorded: largely diminished”. The “TGFβ upregulation in the kidneys” value in the test on Col4a3−/− mice [10] (Western blot) is listed as “significantly reduced the degree of TGFβ upregulation”. Besides, the “Caspase 3 activation” value in the test with Col4a3−/− mice [10] (kidney Western blot (cleaved Caspase 3)) is on record as “reduced”. Further, the “alpha-smooth muscle actin (αSMA) and fibronectin protein” value in the test with Col4a3−/− mice [10] (kidney, reduction seen on transcripts) was “confirmed at the protein level”. The “podocyte markers WT1 and Podocin by immunoblotting” value in the test with Col4a3−/− mice [10] (kidney) is given as “restored towards normal; also recorded: Preservation of podocytes”. In addition, in the test on 129-Col4a3^tm1Dec/J mice, the “increase in survival relative to mice treated with isotype-matched control antibody” value is recorded as “up to 40%”.
